These are literature values, as cited in patent publication US20220184236A1, “NANOPARTICLE, CONTRAST AGENT FOR MAGNETIC RESONANCE IMAGING COMPRISING SAME AND ZWITTERIONIC LIGAND COMPOUND” (ASTELLAS PHARMA INC., priority 2018, published 2022).

For the data set the following is noted: authentic sample, stated size.

B1: ovalbumin (protein, UniProt P01012 2-386, looked up)
Ovalbumin: GSIGAASMEFCFDVFKELKVHHANENIFYCPIAIMSALAMVYLGAKDSTRTQINKVVRFDKLPGFGDSIEAQCGTSVNVHSSLRDILNQITKPNDVYSFSLASRLYAEERYPILPEYLQCVKELYRGGLEPINFQTAADQARELINSWVESQTNGIIRNVLQPSSVDSQTAMVLVNAIVFKGLWEKAFKDEDTQAMPFRVTEQESKPVQMMYQIGLFRVASMASEKMKILELPFASGTMSMLVLLPDEVSGLEQLESIINFEKLTEWTSSNVMEERKIKVYLPRMKMEEKYNLTSVLMAMGITDVFSSSANLSGISSAESLKISQAVHAAHAEINEAGREVVGSAEAGVDAASVSEEFRADHPFLFCIKHIATNAVLFFGRCVSP
notes: authentic sample for SEC, particle size 6.1 nm
For the molecule B1, the particle size is listed as 6.1 nm.
